Measured values from the supplement of paper PMC11780869.

Tested on: Bacillus subtilis
Test: cleaved RNA product abundance (RNA/gDNA barcode ratio) relative to median wild-type variant (ratio to wild type); higher = more accumulation of the downstream cleavage product
Conditions: cleavage site: cggR-gapA (positions -7 to +36 mutated)
Summary of the method: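 The B. subtilis chromosome carried reporter mRNAs, truncated aprE or tetM, containing barcoded RNase Y cleavage-site windows mutagenized using oligos with a 9% error rate. After growth in LB at 37°C from OD600 0.0003 to 0.3, cleaved RNA was gel-selected, reverse transcribed and barcode-sequenced next to genomic DNA barcodes, with UMI collapsing. Each construct's RNA:gDNA barcode ratio was scaled to the median construct with the unmutated site. That scaled ratio is reported as cleaved product abundance.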

[1] = experiment (reporter, strain, medium): exp 4a: truncated aprE reporter, strain BJT201 with 2% xylose (RNase J1 expressed)
[2] = experiment (reporter, strain, medium): exp 2b: truncated aprE reporter, strain BJT200

Sequence | cleaved RNA product abundance [1] | cleaved RNA product abundance [2] | cleaved RNA product abundance (experiment (reporter, strain, medium): exp 6: tetM reporter, strain 168)
ACAGACGAAGGAGCCGCAAAGAAGTTATCAAGGGATGAATTATCCCTCAATATAAATATCTCTCACTTATTTAAA | 0.25 |  | 
ACAGACGAAGGAGCCGCAAAGAAGTTATCAAGGGATTAATAATCCCTCAATATAAATATCTCTCACTTATTTAAA | 0.301 |  | 
ACAGACGAAGGAGCCGCAAAGAAGTTATCAAGGGATTAATAATCCCTCATTATAAATATCTCTCACTTATTTAAA | 0.314 |  | 
ACAGACGAAGGAGCCGCAAAGAAGTTATCAAGGTATGAATAATCCCTCAATATAAATATCTCTCACTTATTTAAA | 0.169 |  | 
ACAGACGAAGGAGCCGCAAAGAAGTTATCAAGTGATGAATAATCCCTCAATATAAATATCTCTCACTTATTTAAA | 0.0945 |  | 
ACAGACGAAGGAGCCGCAAAGAAGTTATCAATGGATGAATAATCCCTCAATATAAATATCTCTCACTTATTTAAA | 0.146 |  | 
ACAGACGAAGGAGCCGCAAAGAAGTTATCAGGGGATGAATAATCCCTCAATATAAATATCTCTCACTTATTTAAA |  | 0.323 | 
ACAGACGAAGGAGCCGCAAAGAAGTTATCATGGGATGAATAATCCCTCAATATAAATATCTCTCACTTATTTAAA | 0.262 |  | 
ACAGACGAAGGAGCCGCAAAGAAGTTATCTAGGGATGAATAATCCCTCAATATAAATATCTCTCACTTATTTAAA | 0.316 |  | 
ACAGACGAAGGAGCCGCAAAGAAGTTATGAAAGGATGAATAATCCCTCAATATAAATATCTCTCACTTATTTAAA | 0.178 |  | 
ACAGACGAAGGAGCCGCAAAGAAGTTATGAACGGATGAATAATCCCTCAATATAAATATCTCTCACTTATTTAAA | 0.242 | 0.177 | 
ACAGACGAAGGAGCCGCAAAGAAGTTATGAAGAGATGAATAATCCCTCAATATAAATATCTCTCACTTATTTAAA | 0.0998 |  | 
ACAGACGAAGGAGCCGCAAAGAAGTTATGAAGCGATGAATAATCCCTCAATATAAATATCTCTCACTTATTTAAA | 0.0897 |  | 
ACAGACGAAGGAGCCGCAAAGAAGTTATGAAGGAATGAATAATCCCTCAATATAAATATCTCTCACTTATTTAAA | 0.0818 | 0.139 | 
ACAGACGAAGGAGCCGCAAAGAAGTTATGAAGGCATGAATAATCCCTCAATATAAATATCTCTCACTTATTTAAA | 0.116 | 0.108 | 
ACAGACGAAGGAGCCGCAAAGAAGTTATGAAGGGACGAATAATCCCTCAATATAAATATCTCTCACTTATTTAAA | 0.318 |  | 

Sequence | cleaved RNA product abundance [1] | cleaved RNA product abundance [2] | cleaved RNA product abundance (experiment (reporter, strain, medium): exp 6: tetM reporter, strain 168)
ACAGACGAAGGAGCCGCAAAGAAGTTATGAAGGGAGGAATAATCCCTCAATATAAATATCTCTCACTTATTTAAA |  | 0.22 | 
ACAGACGAAGGAGCCGCAAAGAAGTTATGAAGGGATAAATAATCCCTCAATATAAATATCTCTCACTTATTTAAA | 0.542 | 0.349 | 
ACAGACGAAGGAGCCGCAAAGAAGTTATGAAGGGATGAATAACCCCTCAATATAAATATCTCTCACTTATTTAAA | 0.419 |  | 
ACAGACGAAGGAGCCGCAAAGAAGTTATGAAGGGATGAATAATCCATCAATATAAATATCTCTCACTTATTTAAA |  | 0.185 | 
ACAGACGAAGGAGCCGCAAAGAAGTTATGAAGGGATGAATAATCCCACAATATAAATATCTCTCACTTATTTAAA |  | 0.138 | 
ACAGACGAAGGAGCCGCAAAGAAGTTATGAAGGGATGAATAATCCCTAAATATAAATATCTCTCACTTATTTAAA | 0.711 | 0.38 | 
ACAGACGAAGGAGCCGCAAAGAAGTTATGAAGGGATGAATAATCCCTCAATATAAATATCTCTCACTTATTTAAA | 0.502 | 0.384 | 0.205
ACAGACGAAGGAGCCGCAAAGAAGTTATGAAGGGATGAATAATCCCTCAATATACATATCTCTCACTTATTTAAA | 0.344 |  | 
ACAGACGAAGGAGCCGCAAAGAAGTTATGAAGGGATGAATAATCCCTCAATATAGATATCTCTCACTTATTTAAA | 0.446 |  | 
ACAGACGAAGGAGCCGCAAAGAAGTTATGAAGGGATGAATAATCCCTCAATATTAATATCTCTCACTTATTTAAA | 0.125 |  | 
ACAGACGAAGGAGCCGCAAAGAAGTTATGAAGGGATGAATAATCCCTCTATATAAATATCTCTCACTTATTTAAA | 0.516 |  | 
ACAGACGAAGGAGCCGCAAAGAAGTTATGAAGGGATGAATAATCCCTTAATATAAATATCTCTCACTTATTTAAA | 0.789 |  | 
ACAGACGAAGGAGCCGCAAAGAAGTTATGAAGGGATGAATAATCCGTCAATATAAATATCTCTCACTTATTTAAA | 0.222 |  | 
ACAGACGAAGGAGCCGCAAAGAAGTTATGAAGGGATGAATAATCCTTCAATATAAATATCTCTCACTTATTTAAA | 0.441 |  | 
ACAGACGAAGGAGCCGCAAAGAAGTTATGAAGGGATGAATAATCGCTCAATATAAATATCTCTCACTTATTTAAA | 0.0808 |  | 
ACAGACGAAGGAGCCGCAAAGAAGTTATGAAGGGATGAATAATTCCTCAATATAAATATCTCTCACTTATTTAAA | 0.316 | 0.274 | 
